Data published in patent US20220204580A1 (AstraZeneca / MedImmune, published 2022).
Numbered stars: 1 amine (or outer) side, 2 acyl side, 3 side chain; on linkers, the order of the positions; unused ones are H or OH. Bridge positions count the residues as written; N and C are the ends. Square brackets hold non-standard residues; d marks the D form. Side chains are listed from the residue outwards. Ends that are not written are not given here. * marks the point of attachment. C18 diacid = O=C(O)CCCCCCCCCCCCCCCCC(=O)*; γGlu = O=C(O)[C@H](CCC(=O)[*:2])N[*:1]; Aib = CC(C)(N)C(=O)O

T1: human amylin receptor (calcitonin receptor co-expressed with receptor activity modifying protein, RAMP3) (human, UniProt P30988 25-474; O60896 24-148)
T1 sequence (looked up) 1: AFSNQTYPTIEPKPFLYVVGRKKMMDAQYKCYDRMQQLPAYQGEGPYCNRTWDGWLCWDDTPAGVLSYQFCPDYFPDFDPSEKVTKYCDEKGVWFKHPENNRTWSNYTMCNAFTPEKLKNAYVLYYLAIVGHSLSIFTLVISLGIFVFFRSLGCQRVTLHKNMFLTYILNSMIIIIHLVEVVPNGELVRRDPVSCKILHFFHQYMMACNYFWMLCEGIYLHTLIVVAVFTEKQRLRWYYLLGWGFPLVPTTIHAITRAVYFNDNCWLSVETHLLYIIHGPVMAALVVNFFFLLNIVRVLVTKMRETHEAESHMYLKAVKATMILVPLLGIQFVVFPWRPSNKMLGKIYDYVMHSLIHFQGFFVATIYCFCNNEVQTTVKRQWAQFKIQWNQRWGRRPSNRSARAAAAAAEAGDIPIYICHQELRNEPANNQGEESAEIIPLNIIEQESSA
T1 sequence (looked up) 2: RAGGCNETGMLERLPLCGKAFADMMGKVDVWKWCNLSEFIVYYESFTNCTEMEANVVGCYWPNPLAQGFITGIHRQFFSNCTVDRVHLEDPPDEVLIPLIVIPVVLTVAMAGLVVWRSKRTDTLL

T2: human calcitonin receptor (human, UniProt P30988 25-474)
T2 sequence (looked up): T1 sequence (looked up) 1

B1: Peptide 83 (SEQ ID NO: 83) (peptide)
peptide: K([γGlu-C18 diacid])KCNTATCATQRLANFLVHSS[Aib]NFGPILPPTNVGSN[Aib]Y-NH2
modifications: disulfide 3-8; N-terminus assumed
SMILES: CC[C@H](C)[C@H](NC(=O)[C@@H]1CCCN1C(=O)CNC(=O)[C@H](Cc1ccccc1)NC(=O)[C@H](CC(N)=O)NC(=O)C(C)(C)NC(=O)[C@H](CO)NC(=O)[C@H](CO)NC(=O)[C@H](Cc1c[nH]cn1)NC(=O)[C@@H](NC(=O)[C@H](CC(C)C)NC(=O)[C@H](Cc1ccccc1)NC(=O)[C@H](CC(N)=O)NC(=O)[C@H](C)NC(=O)[C@H](CC(C)C)NC(=O)[C@H](CCCNC(=N)N)NC(=O)[C@H](CCC(N)=O)NC(=O)[C@@H](NC(=O)[C@H](C)NC(=O)[C@@H]1CSSC[C@H](NC(=O)[C@H](CCCCN)NC(=O)[C@@H](N)CCCCNC(=O)CC[C@H](NC(=O)CCCCCCCCCCCCCCCCC(=O)O)C(=O)O)C(=O)N[C@@H](CC(N)=O)C(=O)N[C@@H]([C@@H](C)O)C(=O)N[C@@H](C)C(=O)N[C@@H]([C@@H](C)O)C(=O)N1)[C@@H](C)O)C(C)C)C(=O)N[C@@H](CC(C)C)C(=O)N1CCC[C@H]1C(=O)N1CCC[C@H]1C(=O)N[C@H](C(=O)N[C@@H](CC(N)=O)C(=O)N[C@H](C(=O)NCC(=O)N[C@@H](CO)C(=O)N[C@@H](CC(N)=O)C(=O)NC(C)(C)C(=O)N[C@@H](Cc1ccc(O)cc1)C(N)=O)C(C)C)[C@@H](C)O
B2: Peptide 84 (SEQ ID NO: 84) (peptide)
peptide: K([γGlu-C18 diacid])KCNTATCATQRLANFLVHSS[Aib]NFGPILPPTNVG[Aib]NTY-NH2
modifications: disulfide 3-8; N-terminus assumed
SMILES: CC[C@H](C)[C@H](NC(=O)[C@@H]1CCCN1C(=O)CNC(=O)[C@H](Cc1ccccc1)NC(=O)[C@H](CC(N)=O)NC(=O)C(C)(C)NC(=O)[C@H](CO)NC(=O)[C@H](CO)NC(=O)[C@H](Cc1c[nH]cn1)NC(=O)[C@@H](NC(=O)[C@H](CC(C)C)NC(=O)[C@H](Cc1ccccc1)NC(=O)[C@H](CC(N)=O)NC(=O)[C@H](C)NC(=O)[C@H](CC(C)C)NC(=O)[C@H](CCCNC(=N)N)NC(=O)[C@H](CCC(N)=O)NC(=O)[C@@H](NC(=O)[C@H](C)NC(=O)[C@@H]1CSSC[C@H](NC(=O)[C@H](CCCCN)NC(=O)[C@@H](N)CCCCNC(=O)CC[C@H](NC(=O)CCCCCCCCCCCCCCCCC(=O)O)C(=O)O)C(=O)N[C@@H](CC(N)=O)C(=O)N[C@@H]([C@@H](C)O)C(=O)N[C@@H](C)C(=O)N[C@@H]([C@@H](C)O)C(=O)N1)[C@@H](C)O)C(C)C)C(=O)N[C@@H](CC(C)C)C(=O)N1CCC[C@H]1C(=O)N1CCC[C@H]1C(=O)N[C@H](C(=O)N[C@@H](CC(N)=O)C(=O)N[C@H](C(=O)NCC(=O)NC(C)(C)C(=O)N[C@@H](CC(N)=O)C(=O)N[C@H](C(=O)N[C@@H](Cc1ccc(O)cc1)C(N)=O)[C@@H](C)O)C(C)C)[C@@H](C)O
B3: Peptide 85 (SEQ ID NO: 85) (peptide)
peptide: K([γGlu-C18 diacid])KCNTATCATQRLANFLVHSS[Aib]NFGPILPPTNVGSNT[Aib]-NH2
modifications: disulfide 3-8; N-terminus assumed
SMILES: CC[C@H](C)[C@H](NC(=O)[C@@H]1CCCN1C(=O)CNC(=O)[C@H](Cc1ccccc1)NC(=O)[C@H](CC(N)=O)NC(=O)C(C)(C)NC(=O)[C@H](CO)NC(=O)[C@H](CO)NC(=O)[C@H](Cc1c[nH]cn1)NC(=O)[C@@H](NC(=O)[C@H](CC(C)C)NC(=O)[C@H](Cc1ccccc1)NC(=O)[C@H](CC(N)=O)NC(=O)[C@H](C)NC(=O)[C@H](CC(C)C)NC(=O)[C@H](CCCNC(=N)N)NC(=O)[C@H](CCC(N)=O)NC(=O)[C@@H](NC(=O)[C@H](C)NC(=O)[C@@H]1CSSC[C@H](NC(=O)[C@H](CCCCN)NC(=O)[C@@H](N)CCCCNC(=O)CC[C@H](NC(=O)CCCCCCCCCCCCCCCCC(=O)O)C(=O)O)C(=O)N[C@@H](CC(N)=O)C(=O)N[C@@H]([C@@H](C)O)C(=O)N[C@@H](C)C(=O)N[C@@H]([C@@H](C)O)C(=O)N1)[C@@H](C)O)C(C)C)C(=O)N[C@@H](CC(C)C)C(=O)N1CCC[C@H]1C(=O)N1CCC[C@H]1C(=O)N[C@H](C(=O)N[C@@H](CC(N)=O)C(=O)N[C@H](C(=O)NCC(=O)N[C@@H](CO)C(=O)N[C@@H](CC(N)=O)C(=O)N[C@H](C(=O)NC(C)(C)C(N)=O)[C@@H](C)O)C(C)C)[C@@H](C)O
B4: Peptide 86 (SEQ ID NO: 86) (peptide)
peptide: K([γGlu-C18 diacid])KCNTATCATQRLAHFL[Aib]HSS[Aib]NFGPILPPTEVGSNTY-NH2
modifications: disulfide 3-8; N-terminus assumed
SMILES: CC[C@H](C)[C@H](NC(=O)[C@@H]1CCCN1C(=O)CNC(=O)[C@H](Cc1ccccc1)NC(=O)[C@H](CC(N)=O)NC(=O)C(C)(C)NC(=O)[C@H](CO)NC(=O)[C@H](CO)NC(=O)[C@H](Cc1c[nH]cn1)NC(=O)C(C)(C)NC(=O)[C@H](CC(C)C)NC(=O)[C@H](Cc1ccccc1)NC(=O)[C@H](Cc1c[nH]cn1)NC(=O)[C@H](C)NC(=O)[C@H](CC(C)C)NC(=O)[C@H](CCCNC(=N)N)NC(=O)[C@H](CCC(N)=O)NC(=O)[C@@H](NC(=O)[C@H](C)NC(=O)[C@@H]1CSSC[C@H](NC(=O)[C@H](CCCCN)NC(=O)[C@@H](N)CCCCNC(=O)CC[C@H](NC(=O)CCCCCCCCCCCCCCCCC(=O)O)C(=O)O)C(=O)N[C@@H](CC(N)=O)C(=O)N[C@@H]([C@@H](C)O)C(=O)N[C@@H](C)C(=O)N[C@@H]([C@@H](C)O)C(=O)N1)[C@@H](C)O)C(=O)N[C@@H](CC(C)C)C(=O)N1CCC[C@H]1C(=O)N1CCC[C@H]1C(=O)N[C@H](C(=O)N[C@@H](CCC(=O)O)C(=O)N[C@H](C(=O)NCC(=O)N[C@@H](CO)C(=O)N[C@@H](CC(N)=O)C(=O)N[C@H](C(=O)N[C@@H](Cc1ccc(O)cc1)C(N)=O)[C@@H](C)O)C(C)C)[C@@H](C)O
B5: Peptide 87 (SEQ ID NO: 87) (peptide)
peptide: K([γGlu-C18 diacid])KCNTATCATQRLANFL[Aib]HSS[Aib]NFGPILPPTNVGSNTP-NH2
modifications: disulfide 3-8; N-terminus assumed
SMILES: CC[C@H](C)[C@H](NC(=O)[C@@H]1CCCN1C(=O)CNC(=O)[C@H](Cc1ccccc1)NC(=O)[C@H](CC(N)=O)NC(=O)C(C)(C)NC(=O)[C@H](CO)NC(=O)[C@H](CO)NC(=O)[C@H](Cc1c[nH]cn1)NC(=O)C(C)(C)NC(=O)[C@H](CC(C)C)NC(=O)[C@H](Cc1ccccc1)NC(=O)[C@H](CC(N)=O)NC(=O)[C@H](C)NC(=O)[C@H](CC(C)C)NC(=O)[C@H](CCCNC(=N)N)NC(=O)[C@H](CCC(N)=O)NC(=O)[C@@H](NC(=O)[C@H](C)NC(=O)[C@@H]1CSSC[C@H](NC(=O)[C@H](CCCCN)NC(=O)[C@@H](N)CCCCNC(=O)CC[C@H](NC(=O)CCCCCCCCCCCCCCCCC(=O)O)C(=O)O)C(=O)N[C@@H](CC(N)=O)C(=O)N[C@@H]([C@@H](C)O)C(=O)N[C@@H](C)C(=O)N[C@@H]([C@@H](C)O)C(=O)N1)[C@@H](C)O)C(=O)N[C@@H](CC(C)C)C(=O)N1CCC[C@H]1C(=O)N1CCC[C@H]1C(=O)N[C@H](C(=O)N[C@@H](CC(N)=O)C(=O)N[C@H](C(=O)NCC(=O)N[C@@H](CO)C(=O)N[C@@H](CC(N)=O)C(=O)N[C@H](C(=O)N1CCC[C@H]1C(N)=O)[C@@H](C)O)C(C)C)[C@@H](C)O

Target: T1, human amylin receptor (calcitonin …)
Assay: cell-based or functional assay

Going from B1 to B2, the “EC50 (cAMP production)” value falls from 599 pM to 118 pM (5.1-fold).

First: B3
Second: B4
The “EC50 (cAMP production)” value of the first is 6.8-fold higher: 806 pM for the first, 119 pM for the second.

For B5, the “EC50 (cAMP production)” value was 71 pM.

Compared with B1, B2 is lower in “Ratio (EC50 hCTR / EC50 hAMYR3)” value: 11 for the first, 3 for the second.

Compared with B3, B4 is lower in “Ratio (EC50 hCTR / EC50 hAMYR3)” value: 4 for the first, 3 for the second.

With B5 the “Ratio (EC50 hCTR / EC50 hAMYR3)” value was 1.

Target: T2, human calcitonin receptor
Assay: cell-based or functional assay

First: B1
Second: B2
The “EC50 (cAMP production)” value of the first is 16-fold higher: 6340 pM for the first, 401 pM for the second.

Going from B3 to B4, the “EC50 (cAMP production)” value falls from 3100 pM to 311 pM (10-fold).

With B5 the “EC50 (cAMP production)” value was 74 pM.
